From patent US5591427A, “Human Interleukin-3(Il-3) variants and their use to promote or antagonize IL-3-mediated processes” (Medvet Science Pty. Ltd., priority 1979, dated 1997)

How the values were obtained:
[1] = system: bone marrow progenitor cells; assay: Colony assay: clonal proliferation and differentiation of bone marrow progenitor cells in semi-solid agar; format: cell-based; conditions: concentration of IL-3 mutant giving 50% of biological activity compared to that of wild type IL-3; mean ± SD
Description: (a) Colony assay: this assay measured the clonal proliferation and differentiation of bone marrow progenitor cells in semi-solid agar and was carried out as described (Lopez et. al., 1985, Blood 72, 1797-1804). Briefly, low density, macrophage-depleted bone marrow cells were cultured at a concentration of 0.5 to 1×10^5 /mL in Iscove's modified Dulbecco's medium (IMDM, GIBCI, Grant Island, N.Y.), containing 0.33% agar (Difco, Detroit), 25% FCS (Commonwealth Serum Laboratories, Parkville, Victoria, Australia), and 20 μmol/LK2-mercaptoethanol. Different dilutions of IL-3- containing COS cell supernatants were added to each plate. Plates were prepared in triplicate and scored after incubation at 37° C. in 5% CO2 in a humid atmosphere for 14 days. Clones containing 40 cells were scored as colonies.

[2] = system: chronic myeloid leukaemic (CML) cells; assay: Proliferation of chronic myeloid leukaemic (CML) cells, [3H] thymidine incorporation; format: cell-based, human
Description: (b ) Proliferation of chronic myeloid leukaemic (CML) cells: Primarily CML cells from one patient were selected for their ability to incorporate [^3 H] thymidine in response to IL-3 as described (Lopez el. al., supra ). Briefly, CML cells were placed at 2×10^5 cells/mL fresh medium containing different concentrations of IL-3. Cells were incubated for 24 hours in a flat bottom 96-well NUNCLON plates (2×10^4 cells/well) before being pulsed with [^3 H] thymidine (0.5 μCi/well) for four more hours at 37° C. The cells were then harvested onto glass filters with a Titertek automated cell harvester and counted into a Beckman liquid scintillation counter. Data are expressed in cpm, and each point is the mean of six replicates.

monocytes = assay: Stimulation of human monocyte adherence (51Cr adhesion assay); format: cell-based
Description: (a) Monocyte purification. Monocytes were purified from the peripheral blood of normal donors, obtained from the Adelaide Red Cross Transfusion Service, as previously described (Elliott et. al., 1990, J. Immunol., 145, 167-171). In brief, mononuclear cells were prepared by centrifugation of whole blood on lymphoprep cushions (Nyegaard, Oslo, Norway) and washed twice in HBSS, 0.02% EDTA, 0.1% heat inactivated FCS (Flow Laboratories, North Ryde, Australia) and monocytes were purified in a Beckman J-6M/E elutriator using the Sanderson chamber, a flow rate of 12 ml/min and a constant rotor speed of 2050 rpm. Cells remaining in the chamber after 30 min were collected, washed twice in HBSS, and used immediately. Using these methods, monocyte purity as assessed by morphology and nonspecific-esterase staining was always >90% and usually >95%. The major contaminating cell types were lymphocytes and granulocytes (principally basophils).
(b) Adhesion assay. Adhesion was measured by an isotopic method essentially as described (Elliott et. al., supra). In brief, purified monocytes (0.5 to 1×10^8) were resuspended in 1 ml RPMI 1640 with 0.1% FCS and antibiotics and incubated for 30 min at 37° C. with 500 μCi^51 Cr in the form of sodium chromate (Amersham International., Buckinghamshire, England). Cells were washed thrice in RPMI 1640 and resuspended in culture medium consisting of RPMI 1640, 10% FCS, antibiotics, and 0.2% sodium bicarbonate. For measurement of adhesion, 1 to 2.5×10^5 monocytes were aliquotted per well in 96-well microtitre plates (Nunc, Karnstrup, Denmark) together with stimuli or control medium to a total volume of […], and incubated for the indicated periods. […] At harvest, samples of supernatant were taken to assess spontaneous ^51 Cr release (usually <10% of cell-associated radioactivity), wells were washed three times with RPMI 1640 at 37° C., and residual adherent cells lysed in 10 mM Tris-hydrochloride, and 1% Nonident p40 detergent (Sigma). Lysates were transferred to tubes and counted in a Packard auto-gamma 5650. Percent adherence was calculated according to the formula: [formula]

[3] = target: T1, IL-3R α chain and β chain (Homo sapiens, UniProt P26951+P32927); assay: Competition for 125I-IL-3 binding to reconstituted IL-3 high affinity receptor (α and β chains) in COS cells; conditions: FIG. 7
T1 construct: amplify the complete coding region of the IL-3R alpha chain; also to amplify the coding region of the IL-3R α chain; expressed in transfected cells; host or cells: COS cells (pCDM8 vector, electroporation)
T1 sequence (P26951 19-378): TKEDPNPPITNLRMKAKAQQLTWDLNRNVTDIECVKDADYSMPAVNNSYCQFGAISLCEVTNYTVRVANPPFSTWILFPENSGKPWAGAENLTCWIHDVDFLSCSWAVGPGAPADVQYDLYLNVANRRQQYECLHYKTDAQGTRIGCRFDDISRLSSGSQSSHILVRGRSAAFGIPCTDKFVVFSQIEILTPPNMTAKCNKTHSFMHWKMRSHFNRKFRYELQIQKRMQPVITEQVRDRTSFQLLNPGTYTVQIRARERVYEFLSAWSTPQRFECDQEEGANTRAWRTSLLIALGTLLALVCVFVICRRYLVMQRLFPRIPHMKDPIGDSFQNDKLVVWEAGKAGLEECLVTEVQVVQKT
T1 sequence (P32927 17-897): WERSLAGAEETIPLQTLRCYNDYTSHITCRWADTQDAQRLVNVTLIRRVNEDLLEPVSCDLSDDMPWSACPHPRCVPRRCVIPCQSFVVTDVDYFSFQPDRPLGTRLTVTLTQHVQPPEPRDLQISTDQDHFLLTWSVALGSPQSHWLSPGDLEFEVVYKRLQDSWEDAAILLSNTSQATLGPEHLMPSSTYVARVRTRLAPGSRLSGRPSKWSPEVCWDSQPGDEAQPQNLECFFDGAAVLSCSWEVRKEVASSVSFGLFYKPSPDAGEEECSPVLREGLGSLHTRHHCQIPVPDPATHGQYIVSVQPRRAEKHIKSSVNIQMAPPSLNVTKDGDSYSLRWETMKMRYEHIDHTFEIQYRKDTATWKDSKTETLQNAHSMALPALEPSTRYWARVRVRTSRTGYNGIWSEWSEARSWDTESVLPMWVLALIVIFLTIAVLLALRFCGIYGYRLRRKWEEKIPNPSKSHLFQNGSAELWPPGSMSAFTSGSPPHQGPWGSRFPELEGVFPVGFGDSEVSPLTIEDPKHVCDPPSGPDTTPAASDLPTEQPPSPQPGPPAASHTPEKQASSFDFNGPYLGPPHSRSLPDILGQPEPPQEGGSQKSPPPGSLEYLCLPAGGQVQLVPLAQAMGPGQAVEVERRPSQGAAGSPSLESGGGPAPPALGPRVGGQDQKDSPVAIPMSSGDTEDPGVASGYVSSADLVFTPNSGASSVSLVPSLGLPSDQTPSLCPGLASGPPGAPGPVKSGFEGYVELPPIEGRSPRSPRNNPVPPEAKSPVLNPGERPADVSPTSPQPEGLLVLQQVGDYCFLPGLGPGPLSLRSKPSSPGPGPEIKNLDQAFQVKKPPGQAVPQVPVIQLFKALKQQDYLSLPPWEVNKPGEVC
Excerpt: PolyA+ RNA was isolated from the human cord blood cell line KMT2. Oligo dT primed double stranded cDNA was synthesised and used as template for PCR amplification. The PCR primers were designed to amplify the complete coding region of the IL-3R alpha chain and also to amplify the coding region of the […]. The PCR products were cloned into the vector pGEM-2 for sequence verification, and then into the eukaryotic expression vector, pCDM8. The […]-containing plasmid was transfected into COS cells by electroporation, either on its own or in conjunction with the […], and after two days the cells were used for binding studies.

[4] = concentration of IL-3 mutant giving 50% of biological activity compared to that of wild type IL-3

B1: M6: human IL-3 mutant, amino acid 101 (Asp) replaced by Ala (protein, UniProt P08700 20-152, looked up, variant D101A)
Interleukin-3: APMTQTTPLKTSWVNCSNMIDEIITHLKQPPLPLLDFNNLNGEDQDILMENNLRRPNLEAFNRAVKSLQNASAIESILKNLLPCLPLATAAPTRHPIHIKAGDWNEFRRKLTFYLKTLENAQAQQTTLSLAIF
Relative biological activity, PROLIFERATION COLONIES [1]: 104 ± 35 | stimulation of CML cell proliferation ([2]; FIG. 2, FIG. 8): more potent than the wild type IL-3 | Relative biological activity, PROLIFERATION CML [2, 4]: 205 | stimulation of monocyte adherence (monocytes; FIG. 3): more potent than the wild type IL-3 | Relative biological activity, MONOCYTE (monocytes; [4]): 153 ± 48

B2: M47: human IL-3 mutant, glutamic acid at position 22 replaced by arginine (protein, UniProt P08700 20-152, looked up, variant E22R)
Interleukin-3: APMTQTTPLKTSWVNCSNMIDRIITHLKQPPLPLLDFNNLNGEDQDILMENNLRRPNLEAFNRAVKSLQNASAIESILKNLLPCLPLATAAPTRHPIHIKDGDWNEFRRKLTFYLKTLENAQAQQTTLSLAIF
binding to cotransfected α and β chains [3]: less binding
